Assay results as given in patent US8323941B2, “Histone demethylation mediated by the nuclear amine oxidase homolog LSD1” (President and Fellows of Harvard College, priority 2004, dated 2012).

Tests used:
LSD1 [1] = test: LSD1 protein level in knockdown cells (immunostaining, Western blotting); assay type: cell-based, human; details: CoREST shRNA treated cells; 10 μM for 24 hours
Description: (§1) Knockdown LSD, CoREST and Proteasome inhibitor (PI) treatment. Stable cell lines which express mutant GFP-shRNA, CtBP-shRNA, LSD1-shRNA or CoREST-shRNA were generated as previously described (Shi et al., 2003; Sui et al., 2002). To prevent proteasome-mediated protein degradation, the cells were treated with ZL3VS at final concentration 10 μM for 24 hours in culture then harvested. The protein and mRNA levels of the shRNA-knockdown cells with or without PI treatment were estimated by Western blotting and RT-PCR as previously described (Shi et al., 2004).

GST-LSD1 = target: T1, GST-LSD1 (Homo sapiens, UniProt O60341); test: GST pulldown of HIS-tagged CoREST and mutants; assay type: binding; details: Coomassie Blue staining
T1 construct: made in house; host or cells: bacteria (inferred from 'similar procedure' to the His-tagged proteins)
Description: To identify domains of CoREST that are involved in physical interactions with LSD1, GST-LSD1 or GST was incubated with bacterially purified, HIS-tagged CoREST and its mutant derivatives. […] This places the putative LSD1-binding domain within the C-terminal functional domain of CoREST, somewhere between aa 293-381 of CoREST. […] We therefore speculate that the SANT2 domain may be involved in mediate binding to the nucleosomal substrate. Taken together, these findings are consistent with the idea that CoREST functions as a bridging protein. The weak stimulatory activity of the N-terminal CoREST (del1, aa 1-293) remains unclear at the present time.
GST and GSTLSD1 plamsids were kind gifts from Dr. Tadashi Baba's Lab in Japan (Iwase et al., 2004). Expression and purification of GST and GSTLSD1 proteins were done using similar procedure as outlined for purification of his-tagged recombinant proteins. For GST-bead pulldown experiment, 2 μg of each purified his-tagged wt or del CoREST proteins were incubated with 5 μg of bound GST and GSTLSD1 proteins at 4° C. for 4 hrs in a binding buffer (50 mM Tris, pH 8.0, 300 mM NaCl, 1 mM DTT, 0.5 mM EDTA and 0.1% NP-40). The beads were washed 3 times in the binding buffer, resuspended in 2×SDS protein sample buffer, boiled for 5 mins and loaded onto 15% SDS PAGE gel. The gel was then stained with Coomassie Blue.

LSD1 [2] = target: LSD1 (Homo sapiens, UniProt O60341); test: LSD1 demethylation assay on nucleosomal substrates (mononucleosomes), Western blotting; assay type: biochemical; design: Full length (1-851aa) and C-terminal deleted (1-427 aa) human LSD1 cDNAs; 6xHis (N); made in house; host or cells: bacteria; details: for stimulation of LSD1 demethylation activity: CoREST deletion mutants
Description: Preparation of mononucleosome. Mononucleosome was made according to a standard protocol (Tagami et al., 2004; Utley et al., 1996). Briefly, nuclear pellet from both TSA-treated or non-treated HeLa cells was homogenized for 60 times with type A pestle to obtain oligo-nucleosomes. The oligo-nucleosomes were then digested with micrococcal nuclease (40 units/mL) for 10 mins at 30° C. The nuclease is inactivated by 5 mM EDTA. Digested materials were spun at 14000 rpm for 3 mins. Resulting supernatant was spun again for additional 3 mins at the same speed. Supernatant from the second spin was subject to 10-25% glycerol gradient sedimentation. The monocleosome-containing fractions were identified by examining aliquots of fractions (treated with proteinase K) on DNA agarose gel. An aliquot of TSA-treated or non TSA-treated mononucleosome, a kind gift from Dr. Yoshihiro Nakatani's Lab in Dana Faber Cancer Institute, Harvard Medical School (Tagami et al., 2004), was used here as a control for the quality of mononucleosome made in our lab.
Demethylation assay. LSD1 demethylation activity on free histone or nucleosomal histone was carried out as previously reported (Shi et al., 2004). Briefly, bulk histones or mononucleosomes were incubated with purified His-LSD1 with or without purified His-CoREST, His-CoREST mutants, His-BHC80 and/or GST-HDAC1 in the histone demethylase activity (HDM) assay buffer (50 mM Tris pH8.5, 50 mM KCl, 5 mM MgCl, 0.5% BSA and 5% glycerol) from 10 mins up to 1 hour at 37° C. The demethylase activity of LSD1 under various conditions was evaluated by Western blotting using K4-H3 methylation-specific antibodies.

HIS-LSD1 [3] = target: T2, HIS-LSD1 (Homo sapiens, UniProt O60341); test: Demethylation-FDH coupled spectrophotometric assay (formaldehyde formation); assay type: biochemical; design: Full length (1-851aa) and C-terminal deleted (1-427 aa) human LSD1 cDNAs; 6xHis (N); made in house; details: for formaldehyde production (absorbance at OD 340 nm): peptide used as substrate of HIS-LSD1
Excerpt: We used a third independent method to investigate the possibility that LSD1 is a histone demethylase. […] To determine whether formaldehyde was produced in LSD1-mediated enzymatic reactions, we first used the formaldehyde dehydrogenase (FDH) assay to detect the presence of formaldehyde (Lizcano et al., 2000). This assay employs formaldehyde dehydrogenase to convert formaldehyde to formic acid using NAD^+ as the electron acceptor, whose reduction to NADH can be spectrophotometrically measured at OD 340 nm. Thus, when the demethylation reaction is coupled with the FDH assay, the enzymatic activity of LSD1 and reaction kinetics can be determined by measuring the production of NADH. A standard curve was first generated using purified FDH (EC 1.2.1.46), NAD^+ and different concentrations of formaldehyde ranging from 1 μM to 10 mM, within which a linear relationship was found between the production of NADH and the range of formaldehyde used in the assay. Subsequently, the coupled demethylation-FDH assays were carried out within this linear range and were initiated with the addition of the diMeK4H3 substrates. The continuous production of the formaldehyde as the demethylation proceeded was monitored by OD measurement at 340 nm at different time points. […] We next used the demethylation-FDH coupled spectrophotometric assay as another independent means to investigate the substrate specificity of LSD1.
Formaldehyde Dehydrogenase (FDH) assay. Formaldehyde formation was continuously monitored by a coupled spectrophotometric assay (Lizcano et al., 2000) using formaldehyde dehydrogenase (FDH). […] The absorbance at 340 nm (ε340=6.22 mM^−1 cm^−1 for NADH) was measured at each time point in a 0.5 min interval using Beckman DU640 spectrophotometer. The OD 340 nm absorbance at the moment of the substrate addition was considered as 0 and this was used as the 0 min time point. Over a 10 min period, a kinetic software program automatically recorded the absorbance at each time point. The data were analyzed using the Excel program. […]

HIS-LSD1 [4] = target: T2, HIS-LSD1; test: Demethylase assay on histone H3 peptides, Western blotting with methyl-specific antibodies; assay type: biochemical; design: Full length (1-851aa) and C-terminal deleted (1-427 aa) human LSD1 cDNAs; 6xHis (N); made in house; host or cells: bacteria (IPTG induction); details: 1 μg LSD1, 1 nmole peptide; modification-specific antibody
Excerpt: LSD1 is a flavin-containing protein based on its ability to bind FAD ((Humphrey et al., 2001), and data not shown). Its sequence homology with amine oxidases predicts that LSD1 may catalyze oxidation reactions of biogenic amines including monoamine, polyamines or N-methylated protein substrates (such as histones) (Bannister et al., 2002). Amine oxidation catalyzed by flavin-containing amine oxidase is characterized by oxidative cleavage of the a-carbon bond of the substrate to form an imine intermiediate, which, in turn, is hydrolyzed to form an aldehyde and amine via a non-enzymatic process. In a complete catalytic cycle, the cofactor FAD is reduced to FADH2 and then is likely to be re-oxidized by oxygen to produce hydrogen peroxide (Binda et al., 2002). […] The HIS-LSD1 proteins were incubated with histone H3 peptides carrying dimethylated K4 (diMeK4H3) or K9 (diMeK9H3) and the methylation status was determined using a diMeK4H3 or diMeK9H3 specific antibody, respectively. […]
Demethylase assay. […] The reaction mixture was analyzed by SDS-PAGE/Western blotting using methyl-specific antibodies, or by formaldehyde formation assay to examine the removal and conversion of the methyl group to formaldehyde, or by mass spectrometry to identify the demethylated peptide.

LSD1 target genes = test: RT-PCR of LSD1 target genes / mRNA in HeLa cells; assay type: cell-based, human; details: TSA treatment
Excerpt: RT-PCR. Total RNA samples were isolated from 2×10^6 cells by Trizol reagent (Sigma). After DNase treatment, the RNA samples were purified by phenol-chloroform extraction and ethanol precipitation. 38 PCR cycles were used for SCN1A, SCN2A, SCN3A and M4 AchR and 28 PCR cycles for GAPDH. Primers used in RT-PCR were as follows: SCN1A up (5′-[…]-3′; SEQ ID NO: 1), down (5′-[…]-3′; SEQ ID NO: 2); SCN2A up (5′-[…]-3′; SEQ ID NO: 3), down (5′-[…]-3′; SEQ ID NO: 4) SCN3A up (5′-[…]-3′; SEQ ID NO: 5), down (5′-[…]-3′; SEQ ID NO: 6); p57^KIP2 up (5′-[…]-3′; SEQ ID NO: 7), down (5′-[…]-3′; SEQ ID NO: 8); GAPDH up (5′-[…]-3′; SEQ ID NO: 9), down (5′-[…]-3′; SEQ ID NO: 10).
as §1

SCN2A = details: Rat-1 fibroblast cells, TSA treatment; cited from earlier work

CC(C)C[C@@H](/C=C/S(C)(=O)=O)NC(=O)[C@H](CC(C)C)NC(=O)[C@H](CC(C)C)NC(=O)OCc1ccccc1 [ZL3VS]
LSD1 steady state level (LSD1 [1]): restored the LSD1 steady state level

del 3: CoREST deletion mutant aa 105-381
binding to LSD1 (GST-LSD1): bound LSD1 | stimulation of LSD1 demethylation activity (LSD1 [2]): fail to stimulate its activity

diMeK9H3: Synthetic histone H3 peptide (1-21aa) carrying dimethylated K9
formaldehyde production (absorbance at OD 340 nm) (HIS-LSD1 [3]): not | dimethylation level of H3 peptide after incubation with LSD1 (HIS-LSD1 [4]): failed to reduce the dimethylation level at K9

CC(/C=C/C(=O)NO)=C\[C@@H](C)C(=O)c1ccc(N(C)C)cc1 [TSA, Trichostatin A]
expression of LSD1 target genes SCNA2 and SCNA3 (LSD1 target genes): de-repression | SCN2A expression (SCN2A): unaffected | difference in CoREST/LSD1-mediated demethylation, untreated vs TSA-treated nucleosomes (LSD1 [2]; hyperacetylated nucleosomes isolated from TSA-treated HeLa cells, less susceptible): approximately 4 fold

del 5: CoREST deletion mutant aa 293-381
binding to LSD1 (GST-LSD1): bound LSD1 | stimulation of LSD1 demethylation activity (LSD1 [2]): fail to stimulate its activity

HDAC1: Bacterially purified histone deacetylase 1
effect of added protein on ability of recombinant LSD1 to demethylate nucleosomal substrates (LSD1 [2]; bacterially purified protein added to recombinant LSD1): no effect

diMeK4H3: Synthetic histone H3 peptide (1-21 aa) carrying dimethylated K4
formaldehyde production (absorbance at OD 340 nm) (HIS-LSD1 [3]): robust increase | Km (HIS-LSD1 [3]; purified HIS-LSD1, Lineweaver-Burk transformation, read-out: apparent Km for the diMeK4H3 substrates): ~30 µM | dimethylation level of H3 peptide after incubation with LSD1 (HIS-LSD1 [4]): effectively reduced dimethylation level at K4
